Data: patent US20130115677
Residue numbers refer to the chain shown, from its start.

Legend:
Test in all cases: cleavage_in_vitro
[1] = test system: T1, AvrII-HF Y104F (Anabaena variabilis); settings: NEB4, 37 C, Mg2+
T1 sequence: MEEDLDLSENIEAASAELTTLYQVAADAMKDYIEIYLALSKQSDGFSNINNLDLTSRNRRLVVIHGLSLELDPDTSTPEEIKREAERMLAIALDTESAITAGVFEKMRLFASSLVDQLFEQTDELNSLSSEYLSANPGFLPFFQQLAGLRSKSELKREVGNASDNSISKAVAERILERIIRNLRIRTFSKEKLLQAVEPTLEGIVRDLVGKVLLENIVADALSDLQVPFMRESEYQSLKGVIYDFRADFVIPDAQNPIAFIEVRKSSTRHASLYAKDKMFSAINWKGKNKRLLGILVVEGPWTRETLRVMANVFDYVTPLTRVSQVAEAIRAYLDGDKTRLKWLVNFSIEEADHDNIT

[2] = test system: T2, AvrII (Anabaena variabilis); settings: NEB4, 37 C, Mg2+
T2 sequence: T1 sequence with F104Y

[3] = target: T3, SalI-HF R107A (Streptomyces albus G) (UniProt Q53608); settings: NEB4, 37 C, Mg2+
T3 sequence: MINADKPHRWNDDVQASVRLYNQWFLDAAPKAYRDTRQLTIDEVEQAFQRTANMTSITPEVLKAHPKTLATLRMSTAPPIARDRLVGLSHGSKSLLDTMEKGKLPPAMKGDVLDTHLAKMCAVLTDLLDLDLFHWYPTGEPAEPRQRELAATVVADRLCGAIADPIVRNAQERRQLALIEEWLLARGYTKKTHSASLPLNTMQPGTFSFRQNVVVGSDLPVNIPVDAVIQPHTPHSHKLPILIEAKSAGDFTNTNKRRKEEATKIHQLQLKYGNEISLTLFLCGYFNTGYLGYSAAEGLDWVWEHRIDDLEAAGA

[4] = target: T4, SalI (Streptomyces albus G) (UniProt Q53608); settings: NEB4, 37 C, Mg2+
T4 sequence: T3 sequence with A107R

[5] = target: T5, PvuII-HF T46G (Proteus vulgaris) (UniProt P23657); settings: NEB4, 37 C, Mg2+
T5 sequence: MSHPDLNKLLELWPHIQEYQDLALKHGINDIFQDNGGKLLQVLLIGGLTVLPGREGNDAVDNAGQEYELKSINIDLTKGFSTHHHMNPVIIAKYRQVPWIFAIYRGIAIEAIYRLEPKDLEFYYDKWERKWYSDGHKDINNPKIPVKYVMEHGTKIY

[6] = test system: T6, BspQI-HF K279P/R388F (Bacillus sphaericus); settings: NEB4, 50 C, Mg2+
T6 sequence: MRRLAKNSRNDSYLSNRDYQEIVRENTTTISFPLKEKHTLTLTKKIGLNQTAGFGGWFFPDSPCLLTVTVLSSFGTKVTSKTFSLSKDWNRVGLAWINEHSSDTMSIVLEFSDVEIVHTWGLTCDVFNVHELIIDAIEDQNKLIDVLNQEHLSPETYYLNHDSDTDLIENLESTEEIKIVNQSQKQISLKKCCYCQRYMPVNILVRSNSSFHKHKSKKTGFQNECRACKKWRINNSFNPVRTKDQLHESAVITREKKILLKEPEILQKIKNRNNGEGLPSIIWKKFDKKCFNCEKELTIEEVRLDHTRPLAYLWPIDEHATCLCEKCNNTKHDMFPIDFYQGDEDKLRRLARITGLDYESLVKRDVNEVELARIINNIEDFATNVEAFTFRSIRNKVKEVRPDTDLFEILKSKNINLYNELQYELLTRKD

Substance T7 DNA has an activity (fidelity index) [1] of over 1000 and an activity (fidelity index) [2] of 32.
lambda DNA HindIII digest showed an activity (fidelity index) [3] of over 32000 and an activity (fidelity index) [4] of 1.
Substance pBR322 has an activity (fidelity index) [5] of 500.
pUC19 showed an activity (fidelity index) [6] of over 4000.
